In US7160677, “Transcription factor DP-1” (Topotarget UK Limited):

Legend:
[1] = biological target: Gal4 activation domain-E2F-1 hybrid protein (pGAD.E2F-1) (yeast) (UniProt P04386); experiment: cell-based or functional assay
[2] = biological target: DP-1(84-249)/E2F-1(89-437) heteromer (Mus musculus / Homo sapiens?, UniProt Q08639;Q01094 Q08639:84-249,Q01094:89-437); experiment: EMSA; greater than E2F-1 alone; conditions: tags: DP-1 thrombin-released or GST; E2F-1 GST
Description: Cell extracts were prepared as previously described (La Thangue et al., 1990). Gel retardation in F9 EC and HeLa cell extracts (about 6.0 µg) in the presence of anti-DP-1 was performed as previously described (Girling et al., 1993), and immunoprecipitation with anti-DP-1 from HeLa cell extracts was performed by standard procedures. The immunoprecipitates were treated with 1% DOC and 1.5% NP40 and the detergent released material assayed for DRTF1/E2F by gel retardation and the presence of E2F-1 by immunoblotting with the anti-E2F-1 monoclonal antibody SQ41 (Kaelin et al., 1992). The anti-DP-1 antibodies, anti-peptide A and anti-peptide 18, have been previously described (Girling et al., 1993). Rabbit anti-E2F-1 antiserum (antiserum 134) was raised against a peptide which represents E2F-1 amino acid sequence 315 to 323. The sequences of the binding sites used to assess DNA binding specificity were derived from the adenovirus E2A promoter (−71 to −50) and were as follows: WT; […] (SEQ ID NO: 7); 62/60, […]; (SEQ ID NO: 8); 63, […] (SEQ ID NO: 9); 64, […] (SEQ ID NO: 10). In FIG. 2a (tracks 1 to 4), the adenovirus E2A promoter (−96 to +68) was used; in all other cases, the distal E2F site in the E2A promoter (sequences −71 to −50) was used. About 100-fold excess of competing binding sites were used in the gel retardation assays. […]

[3] = biological target: GST-E2F-1(89-437) (UniProt Q01094 Q01094:89-437); experiment: EMSA; conditions: tags: GST
GST-E2F-1(89-437), sequence (Q01094 89-437, one chain of several): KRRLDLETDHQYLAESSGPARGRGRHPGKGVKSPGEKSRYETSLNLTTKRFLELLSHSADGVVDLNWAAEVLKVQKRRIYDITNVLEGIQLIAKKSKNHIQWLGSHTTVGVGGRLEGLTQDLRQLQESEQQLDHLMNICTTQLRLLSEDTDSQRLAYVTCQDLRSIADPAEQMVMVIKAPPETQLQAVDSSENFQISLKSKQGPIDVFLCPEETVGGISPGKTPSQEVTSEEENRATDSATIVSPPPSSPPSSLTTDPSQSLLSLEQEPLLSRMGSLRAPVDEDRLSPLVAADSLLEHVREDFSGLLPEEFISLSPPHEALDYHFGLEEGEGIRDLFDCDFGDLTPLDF

[4] = biological target: DP-1(84-204)/E2F-1(89-437) heteromer (Mus musculus / Homo sapiens?, UniProt Q08639;Q01094 Q08639:84-204,Q01094:89-437); experiment: EMSA; less than with DP-1 84-249; conditions: tags: DP-1 thrombin-released or GST; E2F-1 GST
DP-1(84-204)/E2F-1(89-437) heteromer, sequence (Q01094 89-437, one chain of several): as above
Description: Cell extracts were prepared as previously described (La Thangue et al., 1990). Gel retardation in F9 EC and HeLa cell extracts (about 6.0 µg) in the presence of anti-DP-1 was performed as previously described (Girling et al., 1993), and immunoprecipitation with anti-DP-1 from HeLa cell extracts was performed by standard procedures. The immunoprecipitates were treated with 1% DOC and 1.5% NP40 and the detergent released material assayed for DRTF1/E2F by gel retardation and the presence of E2F-1 by immunoblotting with the anti-E2F-1 monoclonal antibody SQ41 (Kaelin et al., 1992). The anti-DP-1 antibodies, anti-peptide A and anti-peptide 18, have been previously described (Girling et al., 1993). Rabbit anti-E2F-1 antiserum (antiserum 134) was raised against a peptide which represents E2F-1 amino acid sequence 315 to 323. The sequences of the binding sites used to assess DNA binding specificity were derived from the adenovirus E2A promoter (−71 to −50) and were as follows: WT; […] (SEQ ID NO: 7); 62/60, […]; (SEQ ID NO: 8); 63, […] (SEQ ID NO: 9); 64, […] (SEQ ID NO: 10). In FIG. 2a (tracks 1 to 4), the adenovirus E2A promoter (−96 to +68) was used; in all other cases, the distal E2F site in the E2A promoter (sequences −71 to −50) was used. About 100-fold excess of competing binding sites were used in the gel retardation assays.

[5] = biological target: DP-1(59-410)/E2F-1(89-437) heteromer (Mus musculus / Homo sapiens?, UniProt Q08639;Q01094 Q08639:59-410,Q01094:89-437); experiment: EMSA; synergistic; anti-E2F-1 supershift, anti-DP-1 inhibits; conditions: tags: GST on both
DP-1(59-410)/E2F-1(89-437) heteromer, sequence (Q08639 59-410, chain 1 of 2): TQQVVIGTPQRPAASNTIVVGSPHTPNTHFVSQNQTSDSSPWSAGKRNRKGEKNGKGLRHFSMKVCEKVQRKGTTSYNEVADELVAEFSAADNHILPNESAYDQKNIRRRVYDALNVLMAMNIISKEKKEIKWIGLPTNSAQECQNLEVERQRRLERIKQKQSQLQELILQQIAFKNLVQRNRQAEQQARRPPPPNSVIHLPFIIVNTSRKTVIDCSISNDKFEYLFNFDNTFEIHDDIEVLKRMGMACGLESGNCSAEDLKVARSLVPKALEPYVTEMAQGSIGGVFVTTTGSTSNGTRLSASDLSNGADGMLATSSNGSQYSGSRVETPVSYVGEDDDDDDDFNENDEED
DP-1(59-410)/E2F-1(89-437) heteromer, sequence (Q01094 89-437, chain 2 of 2): as the sequence (Q01094 89-437, one chain of several) above

[6] = biological target: T1, wild-type E2F-1^1-437 (Homo sapiens (Human), UniProt Q01094 1-437, radiolabelled with 35S methionine (in vitro translated form) ; chain 1: radiolabelled with 35S methionine (in vitro translated form); letters unchanged); experiment: GST pull-down (glutathione-agarose) of in vitro translated 35S-labelled E2F-1
T1 construct: Translated in reticulocyte lysate for the pull-down; The same full-length protein was expressed from pE2F-1/pCMV E2F-1 in the transfection assays; also called in vitro transcribed and translated E2F-1 polypeptide; pE2F-1
T1 sequence (Q01094 whole entry): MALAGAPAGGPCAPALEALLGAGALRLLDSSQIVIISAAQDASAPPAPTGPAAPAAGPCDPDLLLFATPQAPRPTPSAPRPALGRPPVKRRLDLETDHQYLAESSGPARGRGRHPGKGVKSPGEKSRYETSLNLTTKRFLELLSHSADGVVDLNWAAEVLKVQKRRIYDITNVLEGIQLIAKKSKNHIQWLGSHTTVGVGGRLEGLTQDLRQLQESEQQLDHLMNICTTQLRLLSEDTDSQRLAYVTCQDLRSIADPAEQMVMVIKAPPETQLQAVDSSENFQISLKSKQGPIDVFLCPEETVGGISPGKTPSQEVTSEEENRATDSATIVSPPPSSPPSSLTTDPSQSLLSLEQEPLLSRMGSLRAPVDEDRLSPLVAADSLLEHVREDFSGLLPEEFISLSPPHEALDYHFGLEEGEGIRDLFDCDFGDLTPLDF
Source text: DP-1 and E2F-1 were expressed as, and released from, GST fusion proteins as previously described (Girling et al., 1993). About 100-fold excess of the competing binding sites were used in gel retardation assays, with the binding site taken from the adenovirus E2A promoter (−71 to −50). The wild-type E2F-1 coding sequence was transcribed and further translated using reticulocyte lysate (Promega) and radiolabelled with ^35S methionine. In the dimerization assay (FIG. 2d), GST-DP-1 fusion protein was incubated with E2F-1 polypeptide for 30 min at 30° C., collected with glutathione-agarose (Sigma), and washed repeatedly with 0.1% NF40-in PBSA. Bound E2F-1 polypeptide was released by denaturation in SDS sample buffer and resolved in a 10% polyacrylamide gel.
GST fusion proteins, or GST protein along (track 2), were collected with glutathione-agarose beads and bound E2F-1 polypeptide released.

DP-1(84-249)/E2F-1(89-437) heteromer, sequence (Q01094 89-437, one chain of several): as the sequence (Q01094 89-437, one chain of several) above

Molecule: LexA-DP-1 hybrid protein (pLEX.DP-1) (from UniProt P0A7C2 1-202)
- activity of p4xWT CYC1 (E2F site-dependent transcription in yeast, β-galactosidase) [1]: 50 fold
- transcriptional activity of the LexA reporter construct (yeast two-hybrid, β-galactosidase) [1]: 75 fold

B1: E2A distal E2F site WT (-71 to -50) (dsDNA)
DNA 1: TAGTTTTCGCGCTTAAATTTGA
DNA 2: TCAAATTTAAGCGCGAAAACTA
- binding result [2]: binds
- binding result [3]: binds
- binding result [4]: binds
- binding result [5]: binds

B2: GST-DP-1^84-166 (other)
chain: PNTHFVSQNQTSDSSPWSAGKRNRKGEKNGKGLRHFSMKVCEKVQRKGTTSYNEVADELVAEFSAADNHILPNESAYDQKNIR
notes: Uncleaved GST fusion; not shown: glutathione-S-transferase (GST)
- binding result [6]: no binding (tested: about 2 µg GST fusion protein)
